Data as given in patent US20150315260A1 (Sanofi, published 2015).
Starred links: 1 amine or outer side, 2 acyl side, 3 side chain; linkers in the order of their positions; H or OH if unused. Non-standard residues stand in square brackets, D forms with d. Groups on a side chain read outwards from the residue. No end group written: not given here. *: point of attachment. γGlu = O=C(O)[C@H](CCC(=O)[*:2])N[*:1]; Stearoyl = CCCCCCCCCCCCCCCCCC(=O)*; Palmitoyl = CCCCCCCCCCCCCCCC(=O)*; AEEA = NCCOCCOCC(=O)O; Aib = CC(C)(N)C(=O)O

T1: human GIP receptor (human, UniProt P48546 22-466)
T1 sequence (looked up): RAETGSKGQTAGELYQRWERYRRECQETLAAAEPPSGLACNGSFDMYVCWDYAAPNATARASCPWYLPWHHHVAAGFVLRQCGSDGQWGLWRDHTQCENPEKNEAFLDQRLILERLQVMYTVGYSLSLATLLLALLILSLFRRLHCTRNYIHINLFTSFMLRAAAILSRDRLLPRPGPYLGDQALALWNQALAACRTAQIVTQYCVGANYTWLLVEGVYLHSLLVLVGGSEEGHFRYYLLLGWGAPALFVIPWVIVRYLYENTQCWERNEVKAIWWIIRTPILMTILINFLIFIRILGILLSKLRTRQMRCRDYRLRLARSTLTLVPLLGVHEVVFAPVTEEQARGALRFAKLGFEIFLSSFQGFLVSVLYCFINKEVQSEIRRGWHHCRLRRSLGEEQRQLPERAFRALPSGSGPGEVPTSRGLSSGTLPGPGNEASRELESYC


Tests used:
Assay in all cases: cell-based or functional assay
human GIP receptor = target: T1, human GIP receptor
human glucagon receptor = human glucagon receptor (human, UniProt P47871 26-477)
human glucagon receptor, sequence (P47871 26-477): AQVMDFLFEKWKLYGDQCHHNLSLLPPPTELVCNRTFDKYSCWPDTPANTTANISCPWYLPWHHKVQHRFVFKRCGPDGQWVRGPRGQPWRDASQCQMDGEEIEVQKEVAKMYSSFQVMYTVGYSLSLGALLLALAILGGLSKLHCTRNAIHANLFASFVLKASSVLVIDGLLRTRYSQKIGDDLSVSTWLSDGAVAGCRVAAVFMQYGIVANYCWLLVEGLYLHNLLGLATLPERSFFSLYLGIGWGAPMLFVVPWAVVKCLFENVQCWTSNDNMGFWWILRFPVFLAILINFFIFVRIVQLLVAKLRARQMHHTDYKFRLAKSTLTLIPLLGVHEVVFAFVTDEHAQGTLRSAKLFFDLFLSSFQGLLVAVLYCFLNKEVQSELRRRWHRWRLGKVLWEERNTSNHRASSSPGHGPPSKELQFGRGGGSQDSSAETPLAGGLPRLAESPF

human GLP-1 receptor = human GLP-1 receptor (human, UniProt P43220 24-463)

Binder	EC50 hGIP-R (cAMP formation) (human GIP receptor) [pM]	EC50 hGlucagon-R (cAMP formation) (human glucagon receptor) [pM]	EC50 hGLP-1R (cAMP formation) (human GLP-1 receptor) [pM]
H[Aib]QGTFTSDLSKQK([γGlu-Stearoyl])DEQRAKLFIEWL[Aib]A[dA]GPSSGAPPPS-NH2 (N-terminus assumed; SMILES CCCCCCCCCCCCCCCCCC(=O)N[C@@H](CCC(=O)NCCCC[C@H](NC(=O)[C@H](CCC(N)=O)NC(=O)[C@H](CCCCN)NC(=O)[C@H](CO)NC(=O)[C@H](CC(C)C)NC(=O)[C@H](CC(=O)O)NC(=O)[C@H](CO)NC(=O)[C@@H](NC(=O)[C@H](Cc1ccccc1)NC(=O)[C@@H](NC(=O)CNC(=O)[C@H](CCC(N)=O)NC(=O)C(C)(C)NC(=O)[C@@H](N)Cc1c[nH]cn1)[C@@H](C)O)[C@@H](C)O)C(=O)N[C@@H](CC(=O)O)C(=O)N[C@@H](CCC(=O)O)C(=O)N[C@@H](CCC(N)=O)C(=O)N[C@@H](CCCNC(=N)N)C(=O)N[C@@H](C)C(=O)N[C@@H](CCCCN)C(=O)N[C@@H](CC(C)C)C(=O)N[C@@H](Cc1ccccc1)C(=O)N[C@H](C(=O)N[C@@H](CCC(=O)O)C(=O)N[C@@H](Cc1c[nH]c2ccccc12)C(=O)N[C@@H](CC(C)C)C(=O)NC(C)(C)C(=O)N[C@@H](C)C(=O)N[C@H](C)C(=O)NCC(=O)N1CCC[C@H]1C(=O)N[C@@H](CO)C(=O)N[C@@H](CO)C(=O)NCC(=O)N[C@@H](C)C(=O)N1CCC[C@H]1C(=O)N1CCC[C@H]1C(=O)N1CCC[C@H]1C(=O)N[C@@H](CO)C(N)=O)[C@@H](C)CC)C(=O)O) [exendin-4 derivative SEQ ID NO: 6]	2760	136	14.1
H[Aib]QGTFTSDLSKQK([AEEA-AEEA-γGlu-Stearoyl])DEQRAKLFIEWL[Aib]AGGPSSGAPPPS-NH2 (N-terminus assumed; SMILES CCCCCCCCCCCCCCCCCC(=O)N[C@@H](CCC(=O)NCCOCCOCC(=O)NCCOCCOCC(=O)NCCCC[C@H](NC(=O)[C@H](CCC(N)=O)NC(=O)[C@H](CCCCN)NC(=O)[C@H](CO)NC(=O)[C@H](CC(C)C)NC(=O)[C@H](CC(=O)O)NC(=O)[C@H](CO)NC(=O)[C@@H](NC(=O)[C@H](Cc1ccccc1)NC(=O)[C@@H](NC(=O)CNC(=O)[C@H](CCC(N)=O)NC(=O)C(C)(C)NC(=O)[C@@H](N)Cc1c[nH]cn1)[C@@H](C)O)[C@@H](C)O)C(=O)N[C@@H](CC(=O)O)C(=O)N[C@@H](CCC(=O)O)C(=O)N[C@@H](CCC(N)=O)C(=O)N[C@@H](CCCNC(=N)N)C(=O)N[C@@H](C)C(=O)N[C@@H](CCCCN)C(=O)N[C@@H](CC(C)C)C(=O)N[C@@H](Cc1ccccc1)C(=O)N[C@H](C(=O)N[C@@H](CCC(=O)O)C(=O)N[C@@H](Cc1c[nH]c2ccccc12)C(=O)N[C@@H](CC(C)C)C(=O)NC(C)(C)C(=O)N[C@@H](C)C(=O)NCC(=O)NCC(=O)N1CCC[C@H]1C(=O)N[C@@H](CO)C(=O)N[C@@H](CO)C(=O)NCC(=O)N[C@@H](C)C(=O)N1CCC[C@H]1C(=O)N1CCC[C@H]1C(=O)N1CCC[C@H]1C(=O)N[C@@H](CO)C(N)=O)[C@@H](C)CC)C(=O)O) [exendin-4 derivative SEQ ID NO: 17]	906	16.2	2.8
H[Aib]QGTFTSDLSKQK([AEEA-AEEA-AEEA-Stearoyl])DEQRAKLFIEWL[Aib]AGGPSSGAPPPS-NH2 (N-terminus assumed; SMILES CCCCCCCCCCCCCCCCCC(=O)NCCOCCOCC(=O)NCCOCCOCC(=O)NCCOCCOCC(=O)NCCCC[C@H](NC(=O)[C@H](CCC(N)=O)NC(=O)[C@H](CCCCN)NC(=O)[C@H](CO)NC(=O)[C@H](CC(C)C)NC(=O)[C@H](CC(=O)O)NC(=O)[C@H](CO)NC(=O)[C@@H](NC(=O)[C@H](Cc1ccccc1)NC(=O)[C@@H](NC(=O)CNC(=O)[C@H](CCC(N)=O)NC(=O)C(C)(C)NC(=O)[C@@H](N)Cc1c[nH]cn1)[C@@H](C)O)[C@@H](C)O)C(=O)N[C@@H](CC(=O)O)C(=O)N[C@@H](CCC(=O)O)C(=O)N[C@@H](CCC(N)=O)C(=O)N[C@@H](CCCNC(=N)N)C(=O)N[C@@H](C)C(=O)N[C@@H](CCCCN)C(=O)N[C@@H](CC(C)C)C(=O)N[C@@H](Cc1ccccc1)C(=O)N[C@H](C(=O)N[C@@H](CCC(=O)O)C(=O)N[C@@H](Cc1c[nH]c2ccccc12)C(=O)N[C@@H](CC(C)C)C(=O)NC(C)(C)C(=O)N[C@@H](C)C(=O)NCC(=O)NCC(=O)N1CCC[C@H]1C(=O)N[C@@H](CO)C(=O)N[C@@H](CO)C(=O)NCC(=O)N[C@@H](C)C(=O)N1CCC[C@H]1C(=O)N1CCC[C@H]1C(=O)N1CCC[C@H]1C(=O)N[C@@H](CO)C(N)=O)[C@@H](C)CC) [exendin-4 derivative SEQ ID NO: 18]	2160	8.6	8.3
H[Aib]QGTFTSDLSKQK([AEEA-AEEA-γGlu-Palmitoyl])DEQRAKLFIEWL[Aib]AGGPSSGAPPPS-NH2 (N-terminus assumed; SMILES CCCCCCCCCCCCCCCC(=O)N[C@@H](CCC(=O)NCCOCCOCC(=O)NCCOCCOCC(=O)NCCCC[C@H](NC(=O)[C@H](CCC(N)=O)NC(=O)[C@H](CCCCN)NC(=O)[C@H](CO)NC(=O)[C@H](CC(C)C)NC(=O)[C@H](CC(=O)O)NC(=O)[C@H](CO)NC(=O)[C@@H](NC(=O)[C@H](Cc1ccccc1)NC(=O)[C@@H](NC(=O)CNC(=O)[C@H](CCC(N)=O)NC(=O)C(C)(C)NC(=O)[C@@H](N)Cc1c[nH]cn1)[C@@H](C)O)[C@@H](C)O)C(=O)N[C@@H](CC(=O)O)C(=O)N[C@@H](CCC(=O)O)C(=O)N[C@@H](CCC(N)=O)C(=O)N[C@@H](CCCNC(=N)N)C(=O)N[C@@H](C)C(=O)N[C@@H](CCCCN)C(=O)N[C@@H](CC(C)C)C(=O)N[C@@H](Cc1ccccc1)C(=O)N[C@H](C(=O)N[C@@H](CCC(=O)O)C(=O)N[C@@H](Cc1c[nH]c2ccccc12)C(=O)N[C@@H](CC(C)C)C(=O)NC(C)(C)C(=O)N[C@@H](C)C(=O)NCC(=O)NCC(=O)N1CCC[C@H]1C(=O)N[C@@H](CO)C(=O)N[C@@H](CO)C(=O)NCC(=O)N[C@@H](C)C(=O)N1CCC[C@H]1C(=O)N1CCC[C@H]1C(=O)N1CCC[C@H]1C(=O)N[C@@H](CO)C(N)=O)[C@@H](C)CC)C(=O)O) [exendin-4 derivative SEQ ID NO: 16]	1870	42	2
